Data published in paper PMC5177622, “Multivalent Histone and DNA Engagement by a PHD/BRD/PWWP Triple Reader Cassette Recruits ZMYND8 to K14ac-Rich Chromatin” (Cell Reports, 2016).
Values belong to the substance of their own block, whether it stands above or below them.

Assays:
histone H3 K9ac (m36) = experiment: anti-FLAG immunoprecipitation and western blot, quantified; details: HEK293 cells transiently transfected; three biological replicates; anti-H3K9ac blot; parent: est. 1.0; read off a plot
[1] = target: ZMYND8 PHD/BRD/PWWP triple reader cassette (Q83-S406), wild type (human); experiment: ITC; ITC200; peptides titrated into a solution of ZMYND8; single-site binding model; n = 3
histone H3 K36me (m36) = experiment: anti-FLAG immunoprecipitation and western blot, quantified; details: HEK293 cells transiently transfected; three biological replicates; anti-H3K36me blot; parent: est. 1.0; read off a plot
histone H3 K36me2 (m36) = experiment: as above; details: HEK293 cells transiently transfected; three biological replicates; anti-H3K36me2 blot; parent: est. 1.0; read off a plot
histone H3 K36me3 (m36) = experiment: as above; details: HEK293 cells transiently transfected; three biological replicates; anti-H3K36me3 blot; parent: est. 1.0; read off a plot

ratio to parent (histone H3 K9ac (m36)): 0.19
Substance: 3×FLAG-ZMYND8 full length, wild type (from UniProt Q9ULU4-13) N228F

Kd [1]: 6.8 µM
Substance: Histone H3.3 40-aa recombinant peptide, K14ac (from UniProt P84243 2-41)

ratio to parent (histone H3 K36me (m36)): 0.28
ratio to parent (histone H3 K36me2 (m36)): 0.08
ratio to parent (histone H3 K36me3 (m36)): 0.39
Substance: 3×FLAG-ZMYND8 full length, wild type (from UniProt Q9ULU4-13) F288A; W291A
